In US20110245153A1:

Biological target: Staphylococcal enterotoxin B (Staphylococcus aureus) (UniProt P01552)
Chain of UniProt P01552 (P01552 28-266 limits assumed): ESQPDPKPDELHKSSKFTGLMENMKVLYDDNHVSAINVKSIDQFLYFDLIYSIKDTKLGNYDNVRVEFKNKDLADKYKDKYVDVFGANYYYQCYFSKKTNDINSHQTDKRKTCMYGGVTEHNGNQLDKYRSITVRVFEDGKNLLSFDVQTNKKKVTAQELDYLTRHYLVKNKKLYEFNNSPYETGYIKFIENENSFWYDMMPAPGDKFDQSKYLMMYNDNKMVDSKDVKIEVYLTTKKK

Vβ8 CDR2 mutant EGIGYITK (TCR)
Kd: 5 nM
